B1: 894_0255 (peptide)
peptide: {CH2CO}-AV[NMePhe(4-F)]V[Trp(5-Cl)]NY[Phe(4-OMe)]IIRRFYC-NH2
modifications: thioether N-15; not fully specified (residue 14); also: linker PEG4c, place not given here
B2: 849_0397 (peptide)
peptide: {CH2CO}-AV[NMePhe(3-Cl)]VWNY[F4aao]II[E(PEG8Me)]RF[NMeY]C-NH2
modifications: thioether N-15; also: linker PEG4c, place not given here
B3: 894_0281 (peptide)
peptide: {CH2CO}-AV[NMePhe(3-Cl)]VWNY[Phe(4-OMe)]IIKRFYC-NH2
modifications: thioether N-15; not fully specified (residue 14); also: linker PEG4c
B4: 894_0254 (peptide)
peptide: {CH2CO}-AV[NMePhe(4-F)]V[Trp(5-Cl)]NYYIIRRFYC-NH2
modifications: thioether N-15; not fully specified (residue 14); also: linker PEG4c, place not given here
B5: 894_0291 (peptide)
peptide: {CH2CO}-AV[NMePhe(3-Cl)]VWNY[Phe(4-OMe)]IIRRYYC-NH2
modifications: thioether N-15; not fully specified (residue 14); also: linker PEG4c
B6: 849_0404 (peptide)
peptide: {CH2CO}-AV[NMePhe(3-Cl)]V[Trp(1-CH2CO)]NY[F4aao]II[E(PEG4Me)][Nle(6-morpholino)]F[NMeY]C-NH2
modifications: thioether N-15; also: linker PEG4c, attachment site not given here
B7: 894_0289 (peptide)
peptide: {CH2CO}-AV[NMeF]V[Trp(5-Cl)]NY[Phe(4-OMe)]IIRRYYC-NH2
modifications: thioether N-15; not fully specified (residue 14); also: linker PEG4c
B8: 894_0390 (peptide)
peptide: {CH2CO}-AV[NMePhe(3-Cl)]V[Trp(1-CH2CO)]NY[F4aao]II[Nle(6-morpholino)][Nle(6-morpholino)]F[NMeY]C-NH2
modifications: thioether N-15; also: linker PEG4c, place not given here
B9: 894_0317 (peptide)
peptide: {CH2CO}-AV[NMePhe(3-Cl)]VWNY[Phe(4-OMe)″]IIRR[4Pal][NMeY]C-NH2
modifications: thioether N-15; also: linker PEG4c
B10: 894_3200 (peptide)
peptide: AVFVWNYYIIKRYYC
modifications: 3:MeF,5:MeW,14:MeY; linker G-ds-ds-ds-ds-ds-KN3; ClAc-1/C15 thioether ring; C-term NH2
B11: 894_0250 (peptide)
peptide: {CH2CO}-AV[NMeF]V[Trp(5-Cl)]NYYIIRRFYC-NH2
modifications: thioether N-15; not fully specified (residue 14); also: linker PEG4c, place not given here
B12: 894_0386 (peptide)
peptide: {CH2CO}-AV[NMePhe(3-Cl)]V[Trp(1-CH2CO)]NY[F4aao]II[Ala(1-CH2CO2H-4-piperidyl)]RF[NMeY]C-NH2
modifications: thioether N-15; also: linker PEG4c, place not given here
B13: 894_3167 (peptide)
peptide: {CH2CO}-AV[NMePhe(3-Cl)]V[Trp(1-CH2CO)]NY[Phe(4-OMe)(3)]IERRF[NMeY]C-NH2
modifications: thioether N-15; also: linker G-de-de-de-ds-ds-KN3, attachment not given here
B14: 849_0399 (peptide)
peptide: {CH2CO}-AV[NMePhe(3-Cl)]VWNY[F4aao]II[E(NHdPEG1Me)]R[Phe(3-COOH)][NMeY]C-NH2
modifications: thioether N-15; also: linker PEG4c, place not given here
B15: 894_0391 (peptide)
peptide: {CH2CO}-AV[NMePhe(3-Cl)]V[Trp(1-CH2CO)]NY[Phe(4-OMe)″]IIRRF[NMeY]C-NH2
modifications: thioether N-15; also: linker PEG4c, place not given here
B16: 894_3168 (peptide)
peptide: {CH2CO}-AV[NMePhe(3-Cl)]V[Trp(1-CH2CO)]NY[F4aao]IIRRF[NMeY]C-NH2
modifications: thioether N-15; also: linker G-de-de-de-ds-ds-KN3, attachment not given here
B17: 894_0280 (peptide)
peptide: {CH2CO}-AV[NMePhe(3-Cl)]VWNY[Phe(4-OMe)]IIRRFYC-NH2
modifications: thioether N-15; not fully specified (residue 14); also: linker PEG4c
B18: 894_0392 (peptide)
peptide: {CH2CO}-AV[NMePhe(3-Cl)]VWNY[F4aao]IIRRF[NMeY]C-NH2
modifications: thioether N-15; also: linker PEG4c, place not given here
B19: 894_0251 (peptide)
peptide: {CH2CO}-AV[NMeF]V[Trp(5-Cl)]NY[Phe(4-OMe)]IIRRFYC-NH2
modifications: thioether N-15; not fully specified (residue 14); also: linker PEG4c, place not given here
B20: 894_0295 (peptide)
peptide: {CH2CO}-AV[NMePhe(3-Cl)]V[Trp(1-CH2CO)]NY[F4aao]IIRRFYC-NH2
modifications: thioether N-15; not fully specified (residue 14); also: linker PEG4c
B21: 894_0285 (peptide)
peptide: {CH2CO}-AV[NMeF]VWNY[Phe(4-OMe)]II[NMeR]RFYC-NH2
modifications: thioether N-15; not fully specified (residue 14); also: linker PEG4c
B22: 894_0342 (peptide)
peptide: Ac-AV[NMePhe(3-Cl)]V[Trp(1-CH2CO)]NY[F4aao]IIRR[Phe(3-COOH)][NMeY]C
modifications: thioether (positions not given here); not fully specified (C-terminus, bridges)
B23: 894_3182 (peptide)
peptide: {CH2CO}-AV[NMePhe(3-Cl)]V[Trp(1-CH2CO)]NY[F4aao]IIRRF[NMeY]CG[PEG8][Lys(N3)]-NH2
modifications: thioether N-15
SMILES: CC[C@H](C)[C@@H]1NC(=O)[C@H](Cc2ccc(OCC(=O)O)cc2)NC(=O)[C@H](Cc2ccc(O)cc2)NC(=O)[C@H](CC(N)=O)NC(=O)[C@H](Cc2cn(CC(=O)O)c3ccccc23)NC(=O)[C@H](C(C)C)NC(=O)[C@H](Cc2cccc(Cl)c2)N(C)C(=O)[C@H](C(C)C)NC(=O)[C@H](C)NC(=O)CSC[C@@H](C(=O)NCC(=O)NCCOCCOCCOCCOCCOCCOCCOCCOCCC(=O)N[C@@H](CCCCN=[N+]=[N-])C(N)=O)NC(=O)[C@H](Cc2ccc(O)cc2)N(C)C(=O)[C@H](Cc2ccccc2)NC(=O)[C@H](CCCNC(=N)N)NC(=O)[C@H](CCCNC(=N)N)NC(=O)[C@H]([C@@H](C)CC)NC1=O
B24: 894_0327 (peptide)
peptide: Ac-AV[NMePhe(3-Cl)]VWNY[3Pal]IIQQ[4Pal][NMeY]C
modifications: thioether (positions not given here); not fully specified (C-terminus, bridges)

Starred links: 1 amine or outer side, 2 acyl side, 3 side chain; linkers in the order of their positions; H or OH if unused. Positions of bridges follow the written chain, without caps; N, C: chain ends. Non-standard residues stand in square brackets, D forms with d. Primed or numbered codes have the meaning given here. No end group written: not given here. E(PEG8Me) = (S)-30-amino-27-oxo-2,5,8,11,14,17,20,23-octaoxa-26-azahentriacontane-31-oic acid, COCCOCCOCCOCCOCCOCCOCCOCCNC(=O)CC[C@H](N[*:1])C(=O)[*:2]; E(PEG4Me) = (S)-18-amino-15-oxo-2,5,8,11-tetraoxa-14-azanonadecane-19-oic acid, COCCOCCOCCOCCNC(=O)CC[C@H](N[*:1])C(=O)[*:2]; Phe(4-OMe)(3) = (S)-2-amino-3-(4-methoxyphenyl)propanoic acid (source code F4OMe), COc1ccc(C[C@H](N[*:1])C(=O)[*:2])cc1; F4aao = (S)-2-amino-3-(4-(carboxymethoxy)phenyl)propanoic acid, O=C([C@H](Cc1ccc(OCC(=O)[*:3])cc1)N[*:1])[*:2]; Phe(4-OMe)″ = (S)-2-amino-3-(4-methoxyphenyl)propanoic acid (F4OMe), COc1ccc(C[C@H](N[*:1])C(=O)[*:2])cc1; Phe(4-OMe) = F4OMe = (S)-2-amino-3-(4-methoxyphenyl)propanoic acid, COc1ccc(C[C@H](N[*:1])C(=O)[*:2])cc1; E(NHdPEG1Me) = N5-(1,3-dimethoxypropan-2-yl)-L-glutamine, COCC(COC)NC(=O)CC[C@H](N[*:1])C(=O)[*:2]; Trp(1-CH2CO) = O=C([C@H](Cc1cn(CC(=O)[*:3])c2ccccc12)N[*:1])[*:2]; Ala(1-CH2CO2H-4-piperidyl) = N[C@@H](CC1CCN(CC(=O)O)CC1)C(=O)O; Trp(5-Cl) = N[C@@H](Cc1c[nH]c2ccc(Cl)cc12)C(=O)O; Nle(6-morpholino) = N[C@@H](CCCCN1CCOCC1)C(=O)O; Phe(3-COOH) = N[C@@H](Cc1cccc(C(=O)O)c1)C(=O)O; NMePhe(3-Cl) = CN[C@@H](Cc1cccc(Cl)c1)C(=O)O; NMePhe(4-F) = CN[C@@H](Cc1ccc(F)cc1)C(=O)O; PEG8 = NCCOCCOCCOCCOCCOCCOCCOCCOCCC(=O)O; Lys(N3) = [N-]=[N+]=NCCCC[C@H](N)C(=O)O; NMeY = CN[C@@H](Cc1ccc(O)cc1)C(=O)O; NMeR = CN[C@@H](CCCNC(=N)N)C(=O)O; NMeF = CN[C@@H](Cc1ccccc1)C(=O)O; 3Pal = N[C@@H](Cc1cccnc1)C(=O)O; 4Pal = N[C@@H](Cc1ccncc1)C(=O)O

For one assay, the target named is T1, human transferrin receptor (hTfR) (human, UniProt P02786 89-760).
T1 construct: used as 0.5 uM hTfR dimer solution, immobilised on an NTA sensor chip (Ni capture plus EDC/NHS coupling); also called human TfR; TfR1
T1 sequence (P02786 89-760 limits assumed): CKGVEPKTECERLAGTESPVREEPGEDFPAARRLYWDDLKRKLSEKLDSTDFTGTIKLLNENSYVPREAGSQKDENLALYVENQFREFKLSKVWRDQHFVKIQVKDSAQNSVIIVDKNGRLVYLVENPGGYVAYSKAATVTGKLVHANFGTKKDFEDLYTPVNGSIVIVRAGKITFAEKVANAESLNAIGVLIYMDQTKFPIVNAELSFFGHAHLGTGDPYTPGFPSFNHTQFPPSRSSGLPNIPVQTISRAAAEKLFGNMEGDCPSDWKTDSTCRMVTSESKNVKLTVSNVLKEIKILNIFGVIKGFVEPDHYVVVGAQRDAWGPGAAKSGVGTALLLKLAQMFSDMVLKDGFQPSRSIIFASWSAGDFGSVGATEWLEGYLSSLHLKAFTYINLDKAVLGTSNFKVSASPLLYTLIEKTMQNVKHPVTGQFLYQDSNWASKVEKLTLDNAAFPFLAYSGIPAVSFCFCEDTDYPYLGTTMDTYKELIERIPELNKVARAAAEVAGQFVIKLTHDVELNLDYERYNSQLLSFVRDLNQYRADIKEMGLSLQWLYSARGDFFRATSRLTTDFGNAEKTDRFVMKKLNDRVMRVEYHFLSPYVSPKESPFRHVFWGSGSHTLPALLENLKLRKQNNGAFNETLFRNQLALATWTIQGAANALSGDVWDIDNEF
Put plainly: SPR; A = KD <1 nM. The method, then: NTA sensor chip (Global Life Sciences Technologies Japan K.K.) was inserted into BiacoreT200 (Global Life Sciences Technologies Japan K.K.), then the priming operation was performed three times by using running buffer containing: 10 mM HEPES pH 8.0 (Nacalai Tesque, Inc.), 150 mM NaCl (Nacalai Tesque, Inc.), 0.05% Tween 20 (Nacalai Tesque, Inc.), 0.1% BSA (SIGMA-ALDRICH) and 1.0% DMSO (FUJIFILM Wako Pure Chemical Corporation), and equilibrated at a flow rate of 30 μL/min. 350 mM EDTA solution was reacted at a flow rate of 10 μL/min for 60 seconds, 0.5 mM […] solution (Kishida Chemical Co., Ltd.) was reacted at a flow rate of 10 μL/min for 60 seconds, and then the NTA sensor chip was washed with 3 mM EDTA solution (Nacalai Tesque, Inc.) at a flow rate of 10 μL/min for 60 seconds. After mixing 50 μL each of 60 mM EDC solution (Global Life Science Technologies Japan K.K.) and 650 mM NHS solution (Global Life Science Technologies Japan K.K.), the reaction was carried out at a flow rate of 10 μL/min for 420 seconds. 150 μL of 0.5 μM hTfR dimer solution was prepared by dilution with running buffer and reacted at a flow rate of 10 μL/min for 300 seconds to immobilize hTfR on the NTA sensor chip. For the human transferrin receptor (hTfR), recombinant hTfR described in Example 2 of WO2018/124121 was used. After immobilization, capping was performed by reacting with 1.0 M ethanolamine solution (Global Life Sciences Technologies Japan K.K.) at a flow rate of 10 μL/min for 420 seconds. Peptide lysate prepared in DMSO solution to 10 mM was diluted with running buffer to be a final concentration of 10 μM peptide lysate, then peptide solutions of 100 nM, 50 nM, 25 nM, 10 nM, and 5 nM were prepared. Using the above samples, the kinetics of the peptide against hTfR was obtained by SPR measurement.
The kinetic evaluation model was single-cycle kinetics, and curve fitting was performed using Biacore T200 Evaluation Software Version 3.0 (Global Life Science Technologies Japan K.K.). The binding of the peptide to hTfR was evaluated by performing curve fitting on the obtained sensorgram by least squares method and obtaining the KD value.
(In general: In SPR one partner is held on a chip, and binding of the other changes the refractive index at the surface.)
As for B1, the dissociation constant KD (usually a measure of binding affinity in units of concentration) was less than 1 nM.
B2 came in with a dissociation constant KD of less than 1 nM.
Regarding B3, the KD is less than 1 nM.
On the same count and under the same terms, then B4, with less than 1 nM.
In the case of B5, the KD is less than 1 nM.
As for B6, the KD is less than 1 nM.
B7 gave a KD of less than 1 nM.
Consider B8, for which the binding result is listed as “binds”.
B9 gave a KD of less than 1 nM.
Consider B10, for which the binding result was “binds”.
In turn, B11 yielded an equilibrium dissociation constant (KD) of less than 1 nM.
As to B12, the binding result is on record as “binds”.
In turn, B13 showed an equilibrium dissociation constant (KD) of less than 1 nM.
Turning to B14, the KD was less than 1 nM.
The molecule B15 had a KD of less than 1 nM.
B16 came in with a KD of less than 1 nM.
For the molecule B17, the equilibrium dissociation constant (KD) was less than 1 nM.
The same measure, in the same setting: the figure for B18 is less than 1 nM.
The molecule B19 gave a KD of less than 1 nM.

The next assay concerns the target T1, human transferrin receptor (hTfR). Put plainly: SPR; B = KD 1-100 nM. Summed up:
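Recombinant hTfR dimer immobilised on Ni-NTA chip with EDC/NHS coupling; running buffer 10 mM HEPES pH 8.0, 150 mM NaCl, 0.05% Tween 20, 0.1% BSA, 1.0% DMSO. Peptides injected at 5–100 nM in single-cycle kinetics; KD from least-squares sensorgram fitting.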
In turn, B20 showed a dissociation constant (KD) of 1 to 100 nM.
In the case of B21, the KD lay in the range of 1 to 100 nM.
The same measure, in the same setting: then B22, with 1 to 100 nM; and B23, with 1 to 100 nM.
Turning to B24, the dissociation constant KD was in the range of 1 to 100 nM.

The values are drawn from patent US20260116920A1 (PEPTIDREAM, published 2026).
